In paper PMC3291655, “LEDGF/p75-Independent HIV-1 Replication Demonstrates a Role for HRP-2 and Remains Sensitive to Inhibition by LEDGINs” (PLoS Pathogens, 2012):

How the values were obtained:
[1] = biological target: T1, MBP-LEDGF/p75(325-530), maltose binding protein fusion of the C-terminal end of LEDGF/p75 (human, UniProt O75475-1 325-530); test: AlphaScreen or HTRF; IN-His6 titrated (2-fold dilutions from 500 to 1.9 nM) against 10 nM MBP fusion; anti-MBP donor beads and Ni2+-chelate acceptor beads; 25 mM Tris-HCl pH 7.4, 150 mM NaCl, 1 mM MgCl2, 0.1% Tween-20, 0.1% BSA; 1 h at 4°C, then 1 h at RT with beads; apparent KD, one-site specific binding with ligand depletion; settings: both partners purified
T1 construct: also called MBP-LEDGF_(325–530); LEDGF_(325–530); source: E. coli BL21(DE3), purified (amylose resin)
T1 sequence (looked up): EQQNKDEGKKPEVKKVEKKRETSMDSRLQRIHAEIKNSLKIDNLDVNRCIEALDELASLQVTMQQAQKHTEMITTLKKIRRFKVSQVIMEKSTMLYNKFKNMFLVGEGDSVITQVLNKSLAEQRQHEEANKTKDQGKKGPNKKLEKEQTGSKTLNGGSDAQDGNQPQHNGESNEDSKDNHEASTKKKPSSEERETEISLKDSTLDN

[2] = biological target: T2, MBP-HRP-2(448-670), maltose binding protein fusion of the C-terminal part of Hepatoma-derived growth factor … (human, UniProt Q7Z4V5-2 448-670); test: as above; settings: both partners purified
T2 construct: Hepatoma-derived growth factor related protein 2 (HRP-2), human, C-terminal part aa 448-670, which holds the IBD (aa 470-593); the range called the C-terminal end stops at 670, which fits the 670-residue isoform; amplified from p3xFlagHRP-2 and ligated into pMAL-c2E; source: E. coli, purified (amylose resin)
T2 sequence (looked up): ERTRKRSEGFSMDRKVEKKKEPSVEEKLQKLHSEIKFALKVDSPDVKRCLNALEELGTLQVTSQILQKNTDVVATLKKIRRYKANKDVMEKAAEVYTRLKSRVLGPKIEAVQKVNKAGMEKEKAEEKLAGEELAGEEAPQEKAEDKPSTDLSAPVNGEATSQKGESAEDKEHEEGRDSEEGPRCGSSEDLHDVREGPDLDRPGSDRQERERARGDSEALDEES

B1: HIV-1 integrase with a C-terminal His6 tag (enzyme)
chain: FLDGIDKAQEEHEKYHSNWRAMASDFNLPPVVAKEIVASCDKCQLKGEAMHGQVDCSPGIWQLDCTHLEGKVILVAVHVASGYIEAEVIPAETGQETAYFLLKLAGRWPVKTVHTDNGSNFTSTTVKAACWWAGIKQEFGIPYNPQSQGVIESMNKELKKIIGQVRDQAEHLKTAVQMAVFIHNFKRKGGIGGYSAGERIVDIIATDIQTKELQKQITKIQNFRVYYRDSRDPVWKGPAKLLWKGEGAVVIQDNSDIKVVPRRKAKIIRDYGKQMAGDDCVASRQDED
Kd [1]: 6.6 nM
Kd [2]: 89.8 nM
